“And” between values parts separate entries of the source, which are not always exact repeats. Equal values may be shown once.
Legend:
[1] = molecular target: T1, human OX40 expressed on cells (human, UniProt P43489 29-277); assay: flow cytometry on Jurkat NF-κB reporter cells expressing human OX40
T1 construct: also called cell-surface human OX40; Jurkat-NF-κB-huOX40
T1 sequence: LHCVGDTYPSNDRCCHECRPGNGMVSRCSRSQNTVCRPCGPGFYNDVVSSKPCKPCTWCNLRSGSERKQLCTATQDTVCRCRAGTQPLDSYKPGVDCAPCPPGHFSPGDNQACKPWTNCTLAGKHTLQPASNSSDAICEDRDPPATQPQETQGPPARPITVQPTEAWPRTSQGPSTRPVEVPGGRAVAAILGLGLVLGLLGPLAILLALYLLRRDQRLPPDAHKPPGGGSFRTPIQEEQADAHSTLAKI
Experimental: A Jurkat NF-κB reporter cell line expressing human OX40 protein was cultured in DMEM containing 10% FBS and penicillin/streptomycin (pen/strep). For the binding assay, each cell line was resuspended at 5 million cells per mL. 50 μL (250,000 cells)/well were transferred to each well of a 500 μL polypropylene 96-well plate (Nunc). A 2× stock of test anti-OX40 antibody or isotype control mAb was prepared in a separate dilution plate at 666, 333, 111, 37.03, 12.34, 4.11, 0.457, 0.152, 0.0508, 0.0169, 0.00564 nM in culture media. Each antibody (50 μL/well) was transferred into respective wells of the assay plate. Cells were incubated with the test anti-OX40 antibody or isotype control antibodies for 30 minutes at 4° C. and washed twice with 250 μL/well of PBS by centrifuging at 800 rpm for 3 minutes. Bound antibody was detected with Cy5-Donkey anti-human IgG (H+L) (Jackson ImmunoResearch) diluted to 2 μg/mL (50 μL/well) in PBS for 30 minutes at 4° C. Cells were washed once with 250 μL/well of PBS, resuspended in PBS containing 1% Formaldehyde and analyzed on a dual laser FACSCalibur (Becton Dickinson).

293s-huOX40-muCRDIII = molecular target: T2, 293s-huOX40-muCRDIII; assay: flow cytometry on 293s transfectants, Hu3738 added at 2 µg/mL, Cy5 donkey anti-human IgG
T2 construct: cell-surface chimera, named on the sheet by its cell line; also called human OX40 chimera with murine CRDIII replacing human CRDIII
T2 receptor chain: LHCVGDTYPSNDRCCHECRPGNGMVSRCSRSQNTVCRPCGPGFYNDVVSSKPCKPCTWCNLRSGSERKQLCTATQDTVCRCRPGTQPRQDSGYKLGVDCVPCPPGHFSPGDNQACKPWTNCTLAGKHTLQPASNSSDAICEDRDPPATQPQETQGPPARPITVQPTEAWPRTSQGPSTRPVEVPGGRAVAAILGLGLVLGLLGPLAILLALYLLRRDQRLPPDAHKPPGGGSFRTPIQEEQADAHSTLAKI
Experimental: (§1) After plating cells, 50 μL of Hu3738 or isotype control antibody at 2 μg/mL were added to corresponding wells in duplicate for each cell line and allowed to incubate on ice for 30 minutes. Following incubation, 200 μL of Dulbecco's Phosphate Buffered Saline (DPBS) was added into each well and plates were spun down at 1000 rpm for three minutes. Supernatants from each well were removed and 50 μL of Cy5-Donkey anti-Human IgG (Jackson ImmunoResearch) secondary antibody was added at a 1:250 dilution, which was then incubated for 30 minutes on ice in the dark. Following the incubation period, 200 μL of DPBS was added prior to spinning down the plate at 1000 rpm for three minutes. Supernatants were removed and each well was re-suspended with 100 μL of DPBS+1% Formaldehyde. Samples were analyzed on the dual laser FACSCalibur flow cytometer (Becton Dickinson).

293s-huOX40-muCRDII+III = molecular target: T3, 293s-huOX40-muCRDII+III; assay: as above
T3 construct: cell-surface chimera, named on the sheet by its cell line; also called human OX40 chimera with murine CRDII and CRDIII replacing human CRDII and CRDIII
T3 receptor chain: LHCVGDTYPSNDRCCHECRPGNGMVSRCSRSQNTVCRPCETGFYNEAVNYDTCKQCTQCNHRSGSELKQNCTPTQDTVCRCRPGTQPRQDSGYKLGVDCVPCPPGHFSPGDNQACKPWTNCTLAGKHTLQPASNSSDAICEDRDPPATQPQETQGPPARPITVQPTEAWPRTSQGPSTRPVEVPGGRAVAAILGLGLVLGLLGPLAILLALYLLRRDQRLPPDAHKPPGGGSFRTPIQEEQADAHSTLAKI
Experimental: as §1

[2] = molecular target: T1, human OX40 expressed on cells; assay: cell-based or functional assay
[3] = molecular target: T1, human OX40 expressed on cells; assay: cell-based or functional assay; remark: listed apart in the source
[4] = molecular target: T4, rhesus OX40 expressed on 293 NF-κB reporter cells (rhesus macaque (Macaca mulatta), UniProt P43489 29-277 (human entry)); assay: flow cytometry on NF-κB reporter cells expressing rhesus OX40
T4 construct: also called cell-surface rhesus monkey OX40
T4 chain: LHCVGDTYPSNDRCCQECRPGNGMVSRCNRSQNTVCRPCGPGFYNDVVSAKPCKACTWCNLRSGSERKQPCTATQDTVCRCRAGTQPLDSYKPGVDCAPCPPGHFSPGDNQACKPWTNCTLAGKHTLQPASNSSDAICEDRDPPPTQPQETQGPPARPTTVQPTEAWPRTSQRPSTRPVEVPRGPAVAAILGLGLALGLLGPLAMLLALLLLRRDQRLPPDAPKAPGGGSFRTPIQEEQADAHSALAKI
Experimental: Rhesus macaque (Macaca mulatta) OX40 is identical to cynomolgus monkey (Macaca fascicularis) OX40 (SEQ ID NO:2) at the amino acid level. […] For the binding assay, cells were resuspended at 5 million cells per mL. 50 μL (250,000 cells)/well were transferred to each well of a 500 μL polypropylene 96-well plate (Nunc). A 2× stock of test anti-OX40 antibody or isotype control monoclonal antibody was prepared in a separate dilution plate at 666, 333, 111, 37.03, 12.34, 4.11, 0.457, 0.152, 0.0508, 0.0169, 0.00564 nM in culture media. The monoclonal antibodies (50 μL/well) were transferred into respective wells of the assay plate. Cells were incubated with the primary antibodies for 30 minutes at 4° C. and washed twice with 250 μL/well of PBS by centrifuging at 800 rpm for 3 minutes. Bound antibody was detected with Cy5-Donkey anti-human IgG (H+L) (Jackson ImmunoResearch) diluted to 2 μg/mL (50 μL/well) in PBS for 30 minutes at 4° C. Cells were washed once with 250 μL/well of PBS, resuspended in PBS containing 1% Formaldehyde and analyzed on a dual laser FACSCalibur (Becton Dickinson).

B1: Hu3738 (antibody, V domains shown)
VH: EVQLVESGGGLVQPGGSLRLSCAASGFTFSRYGMSWVRQAPGKGLELVATINSNGGRTYYPDSVKGRFTISRDNAKNSLYLQMNSLRAEDTAVYYCAREGITTAYAMDYWGQGTTVTVSS
VL: DIVMTQSPDSLAVSLGERATINCKASQSVDYDGDSYMHWYQQKPGQPPKLLIYAASILESGVPDRFSGSGSGTDFTLTISSLQAEDVAVYYCQQSNEDPRTFGGGTKVEIKR
notes: Humanized antibody; also called exemplary anti-OX40 antibody Hu3738; Hu3738 VH.1b / Hu3738 VL.1
EC50 [1]: 0.075 µg/mL | binding result (293s-huOX40-muCRDIII): binds | binding result (293s-huOX40-muCRDII+III): no binding (tested: 2 µg/mL) | EC50 With Cross-linker (nM), NF-κB signaling [2]: 0.088 nM | EC50 Without Cross-linker (nM), NF-κB signaling [2]: 20 nM | ADCC reporter activity, EC50 [3]: 0.51 nM and 77 ng/mL | IFN-γ production by human CD4+ T cells, EC50 [3]: 0.16 nM and 24 ng/mL | proliferation of human peripheral blood CD4+ T cells, EC50 [3]: 0.11 nM and 16 ng/mL | EC50 [4]: 2.1 nM

Source: patent US20210017289A1 (AbbVie / Abbott, published 2021)
